Laboratory results published in doi:10.1101/2023.01.24.525315 (bioRxiv, 2023).

Columns and labels:
Fly Caf1 wild-type = Fly Caf1 wild-type (fly (Drosophila melanogaster), UniProt Q24572 1-430); experiment: pull-down
[1] = target: Caf1 H3 binding pocket mutant (E235Q/D252K/E279Q) (fly (Drosophila melanogaster), UniProt Q24572 1-430, E235Q | D252K | E279Q); experiment: pull-down
Chain of Caf1 H3 binding pocket mutant (E235Q/D252K/E279Q) (Q24572 whole entry E235Q/D252K/E279Q): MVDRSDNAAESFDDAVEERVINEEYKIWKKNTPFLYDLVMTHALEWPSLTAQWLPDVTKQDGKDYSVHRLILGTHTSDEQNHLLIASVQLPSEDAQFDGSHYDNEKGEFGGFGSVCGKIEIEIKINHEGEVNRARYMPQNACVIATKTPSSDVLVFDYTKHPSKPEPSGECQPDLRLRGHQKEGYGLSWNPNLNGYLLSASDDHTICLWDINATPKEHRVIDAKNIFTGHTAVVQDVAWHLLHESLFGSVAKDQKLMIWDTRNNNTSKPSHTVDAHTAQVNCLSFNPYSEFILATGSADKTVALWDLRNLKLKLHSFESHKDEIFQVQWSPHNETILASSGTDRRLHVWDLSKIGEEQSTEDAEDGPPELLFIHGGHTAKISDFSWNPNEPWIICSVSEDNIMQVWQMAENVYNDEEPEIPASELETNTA

Chain of Fly Caf1 wild-type (Q24572 whole entry): as the sequence (Q24572 whole entry E235Q/D252K/E279Q) above, with Q235E, K252D, Q279E counted along it

binding result (Fly Caf1 wild-type): binds
binding result [1]: binds
Binder: AKLQPLSEKEKKLVRQFNTFLVRNFEKIRRCKAKR (domain or fragment, fly (Drosophila melanogaster), UniProt Q9VW15 1582-1616, looked up) [GST-CBM (Caf1-binding-motif, Ash1 1,582-1,616)]
